The text below walks through data of PMC9082959, “Mechanism of Assembly of the Non-Covalent Spectrin Tetramerization Domain from Intrinsically Disordered Partners” (Journal of molecular biology, 2013).

What all share (assay): ITC; β16β17 at 25–50 μM in the cell titrated with 15–20 injections to 2–2.5 eq of α0α1; one-site binding model; PBS (50 mM sodium phosphate, 150 mM NaCl, pH 7.04), 25 °C; mutants only against the wild-type partner
Conditions in all cases: both partners purified

The target in experiment [1] is T1, β16β17 (erythrocyte β-spectrin residues 1898–2083), wild type (human, UniProt P11277 1898-2083).
T1 construct: erythrocyte β-spectrin, human, residues 1898-2083 (β16 plus the incomplete 17th domain); synthetic gene (GenScript) in a modified pRSETA plasmid; source: E. coli C41(DE3), purified (Ni2+ agarose, thrombin cleavage, gel filtration)
T1 sequence (looked up): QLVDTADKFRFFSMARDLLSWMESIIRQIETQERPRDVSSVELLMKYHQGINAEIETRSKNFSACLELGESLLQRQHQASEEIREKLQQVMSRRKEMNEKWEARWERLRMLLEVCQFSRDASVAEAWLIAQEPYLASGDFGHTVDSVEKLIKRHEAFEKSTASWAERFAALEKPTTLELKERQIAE

The next experiment addresses T2, β16β17 A18G (human, UniProt P11277 1898-2083, A2021G).
T2 construct: erythrocyte β-spectrin, human, residues 1898-2083 (β16β17); mutant of m2; also called A2021G; source: E. coli C41(DE3), purified (Ni2+ agarose, thrombin cleavage, gel filtration)
T2 sequence (looked up): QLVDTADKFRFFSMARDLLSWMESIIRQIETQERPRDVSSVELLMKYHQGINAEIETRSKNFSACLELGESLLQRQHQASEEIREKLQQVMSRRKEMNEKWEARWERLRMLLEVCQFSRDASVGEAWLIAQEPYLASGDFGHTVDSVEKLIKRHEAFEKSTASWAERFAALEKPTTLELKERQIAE

A further experiment addresses T3, β16β17 A15G (human, UniProt P11277 1898-2083, A2018G).
T3 construct: erythrocyte β-spectrin, human, residues 1898-2083 (β16β17); mutant of m2; also called A2018G; source: E. coli C41(DE3), purified (Ni2+ agarose, thrombin cleavage, gel filtration)
T3 sequence (looked up): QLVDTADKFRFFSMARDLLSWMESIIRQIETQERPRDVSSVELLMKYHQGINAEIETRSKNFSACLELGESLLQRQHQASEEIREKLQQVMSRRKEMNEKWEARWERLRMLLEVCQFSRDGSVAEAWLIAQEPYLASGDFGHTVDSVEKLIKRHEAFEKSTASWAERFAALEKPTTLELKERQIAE

Another experiment concerns the target T4, β16β17 Y28A (human, UniProt P11277 1898-2083, Y2031A).
T4 construct: erythrocyte β-spectrin, human, residues 1898-2083 (β16β17); mutant of m2; also called Y2031A; source: E. coli C41(DE3), purified (Ni2+ agarose, thrombin cleavage, gel filtration)
T4 sequence (looked up): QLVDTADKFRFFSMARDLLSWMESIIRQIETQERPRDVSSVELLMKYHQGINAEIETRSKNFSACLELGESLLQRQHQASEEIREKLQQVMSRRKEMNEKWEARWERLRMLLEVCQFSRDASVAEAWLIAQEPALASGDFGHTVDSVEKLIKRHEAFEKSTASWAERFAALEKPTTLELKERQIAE

The target in a further experiment is T5, β16β17 F11A (human, UniProt P11277 1898-2083, F2014A).
T5 construct: erythrocyte β-spectrin, human, residues 1898-2083 (β16β17); mutant of m2; also called F2014A; source: E. coli C41(DE3), purified (Ni2+ agarose, thrombin cleavage, gel filtration)
T5 sequence (looked up): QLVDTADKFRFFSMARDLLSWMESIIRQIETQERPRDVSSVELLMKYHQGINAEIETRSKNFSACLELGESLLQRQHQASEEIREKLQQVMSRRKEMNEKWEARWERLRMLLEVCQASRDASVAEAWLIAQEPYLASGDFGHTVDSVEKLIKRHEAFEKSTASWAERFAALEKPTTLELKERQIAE

In the next experiment the target is T6, β16β17 Y28L (human, UniProt P11277 1898-2083, Y2031L).
T6 construct: erythrocyte β-spectrin, human, residues 1898-2083 (β16β17); mutant of m2; also called Y2031L; source: E. coli C41(DE3), purified (Ni2+ agarose, thrombin cleavage, gel filtration)
T6 sequence (looked up): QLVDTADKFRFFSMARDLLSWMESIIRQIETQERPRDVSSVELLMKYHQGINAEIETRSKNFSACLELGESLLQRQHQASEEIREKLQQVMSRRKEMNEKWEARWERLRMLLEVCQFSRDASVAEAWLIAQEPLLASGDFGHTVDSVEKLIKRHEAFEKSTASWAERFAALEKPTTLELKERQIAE

B1: α0α1 (erythrocyte α-spectrin residues 2–163), wild type (domain or fragment, human, UniProt P02549 2-163, looked up)
chain: EQFPKETVVESSGPKVLETAEEIQERRQEVLTRYQSFKERVAERGQKLEDSYHLQVFKRDADDLGKWIMEKVNILTDKSYEDPTNIQGKYQKHQSLEAEVQTKSRLMSELEKTREERFTMGHSAHEETKAHIEELRHLWDLLLELTLEKGDQLLRALKFQQY
notes: synthetic gene (GenScript) in a modified pRSETA plasmid; also called α1α0; source: E. coli C41(DE3), purified (Ni2+ agarose, thrombin cleavage, gel filtration)
B1 registered a Kd in experiment [1] of 400 nM. The Ka came out at 130000 M⁻¹ in the experiment with β16β17 A18G; 6000 M⁻¹ with β16β17 A15G; 180000 M⁻¹ with β16β17 Y28A; 6000 M⁻¹ in the experiment with β16β17 F11A; 170000 M⁻¹ with β16β17 Y28L.
